# Assay results published in PMC12459221, “A flexible, allosteric loop regulates protein activity and rewires electrostatics” (Protein Science : A Publication of the Protein Society, 2025).
# B1: chorismate mutase (CM) (Saccharomyces cerevisiae S288C; E219A) (protein)
# chain: MDFTKPETVLNLQNIRDELVRMEDSIIFKFIERSHFATCPSVYEANHPGLEIPNFKGSFLDWALSNLEIAHSRIRRFESPDETPFFPDKIQKSFLPSINYPQILAPYAPEVNYNDKIKKVYIEKIIPLISKRDGDDKNNFGSVATRDIECLQSLSRRIHFGKFVAEAKFQSDIPLYTKLIKSKDVEGIMKNITNSAVEEKILERLTKKAEVYGVDPTNASGERRITPEYLVKIYKEIVIPITKEVEVEYLLRRLEE
# notes: TEV-cleavable tagged CM in pET21a, E. coli BL21*(DE3); 60 kDa homodimer
# Substrate: C=C(O[C@@H]1C=C(C(=O)O)C=C[C@H]1O)C(=O)O
# Experiment: enzyme kinetics, triplicate
# Type: biochemical, Saccharomyces cerevisiae
# Details: pH 6.5 or 7.5, 22 °C, 150 mM NaCl
# Description: enzyme kinetics, triplicate on chorismate mutase (CM) | a similar mutation (E219A)
protein,measurement,value
B1,Km,600 ± 200 µM
